The record followed here is IntAct's records for PubMed 26524528.

The labels stand for the following.
B1: Lamin-B1 (Homo sapiens), P20700 (parent)
chain: MATATPVPPRMGSRAGGPTTPLSPTRLSRLQEKEELRELNDRLAVYIDKVRSLETENSALQLQVTEREEVRGRELTGLKALYETELADARRALDDTARERAKLQIELGKCKAEHDQLLLNYAKKESDLNGAQIKLREYEAALNSKDAALATALGDKKSLEGDLEDLKDQIAQLEASLAAAKKQLADETLLKVDLENRCQSLTEDLEFRKSMYEEEINETRRKHETRLVEVDSGRQIEYEYKLAQALHEMREQHDAQVRLYKEELEQTYHAKLENARLSSEMNTSTVNSAREELMESRMRIESLSSQLSNLQKESRACLERIQELEDLLAKEKDNSRRMLTDKEREMAEIRDQMQQQLNDYEQLLDVKLALDMEISAYRKLLEGEEERLKLSPSPSSRVTVSRASSSRSVRTTRGKRKRVDVEESEASSSVSISHSASATGNVCIEEIDVDGKFIRLKNTSEQDQPMGGWEMIRKIGDTSVSYKYTSRYVLKAGQTVTIWAANAGVTASPPTDLIWKNQNSWGTGEDVKVILKNSQGEEVAQRSTVFKTTIPEEEEEEEEAAGVVVEEELFHQQGTPRASNRSCAIM

The assay covers variants of B1. Particulars: with mlp3b_human MAP1LC3B.
With S396A;R397A, the “effect of a mutation on the interaction” value is “decreasing interaction strength”.
Take S393A;S395A;S396A;R397A;V398A: the “effect of a mutation on the interaction” value is on record as “disrupting interaction strength”.
Turning to S395A;S396A, the “effect of a mutation on the interaction” value is recorded as “decreasing interaction strength”.
Take S393A;S395A;S396A;R397A: the “effect of a mutation on the interaction” value is listed as “decreasing interaction strength”.
Consider S393A;S395A, for which the “effect of a mutation on the interaction” value is listed as “decreasing interaction strength”.
Consider V398A, for which the “effect of a mutation on the interaction” value was “decreasing interaction strength”.
